# Results reported in patent US20250011427A1 (CONCEPT TO MEDICINE BIOTECH, published 2025).
# Where a chain is given by its changes, count along the chain named.
# B1: Hu155A9B1-1 (antibody, V domains shown)
# VH: EVQLQESGPGLVKPSETLSLTCTVSGGSISSYNVHWIRQPPGKGLEWIGRVRYNGDTSYNSALKSRVTISVDTSKNQFSLKLSSVTAADTAVYYCARGPYGGSSEPLFDYWGQGTMVTVSS
# VL: DIQMTQSPSSLSASVGDRVTITCKASQNINKYLNWYQQKPGKAPRLLIYTTNNLQTGVPSRFSGSGSGTDFTLTISSLQPEDFATYYCLQHNSGYTFGQGTKLEIK
# B2: Hu155A9B1-13 (antibody, V domains shown)
# VH: B1 VH
# VL: B1 VL with Y36F, V58I, Y87F
# B3: SP34 monoclonal antibody (antibody, human IgG1, lambda, N297A, V domains shown)
# VH: EVQLVESGGGLVQPKGSLKLSCAASGFTFNTYAMNWVRQAPGKGLEWVARIRSKYNNYATYYADSVKDRFTISRDDSQSILYLQMNNLKTEDTAMYYCVRHGNFGNSYVSWFAYWGQGTLVTVSA
# VL: QAVVTQESALTTSPGETVTLTCRSSTGAVTTSNYANWVQEKPDHLFTGLIGGTNKRAPGVPARFSGSLIGDKAALTITGAQTEDEAIYFCALWYSNLWVFGGGTKLTVLG
# notes: Benchmark, bought (Biointron, B6762)
# Key:
# [1] = biological target: human CD3 on cells (human PBMC; Jurkat-CD3-NFAT and TCR/CD3 Effector reporter cells) (human) (UniProt P07766); assay: cell-based or functional assay
# Chain of human CD3 on cells (human PBMC; Jurkat-CD3-NFAT and TCR/CD3 Effector reporter cells) (human) (P07766 23-207, chain 1 of 3): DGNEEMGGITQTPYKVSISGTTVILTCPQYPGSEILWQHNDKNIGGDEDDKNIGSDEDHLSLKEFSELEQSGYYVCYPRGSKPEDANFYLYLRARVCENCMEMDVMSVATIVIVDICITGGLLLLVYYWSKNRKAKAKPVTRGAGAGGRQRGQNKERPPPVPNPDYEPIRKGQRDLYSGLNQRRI
# Chain of human CD3 on cells (human PBMC; Jurkat-CD3-NFAT and TCR/CD3 Effector reporter cells) (human) (P04234 22-171, chain 2 of 3, further chain): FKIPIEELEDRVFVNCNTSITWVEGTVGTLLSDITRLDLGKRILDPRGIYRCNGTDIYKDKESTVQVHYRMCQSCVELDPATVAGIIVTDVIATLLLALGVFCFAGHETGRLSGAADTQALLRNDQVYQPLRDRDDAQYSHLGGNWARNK
# Chain of human CD3 on cells (human PBMC; Jurkat-CD3-NFAT and TCR/CD3 Effector reporter cells) (human) (P09693 23-182, chain 3 of 3, further chain): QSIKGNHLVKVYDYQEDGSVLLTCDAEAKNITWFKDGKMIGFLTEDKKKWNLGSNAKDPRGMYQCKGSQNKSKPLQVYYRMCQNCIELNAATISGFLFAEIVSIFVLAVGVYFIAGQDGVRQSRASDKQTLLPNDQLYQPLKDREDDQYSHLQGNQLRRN
# [2] = biological target: T1, human CD3 on cells (human PBMC; Jurkat-CD3-NFAT and TCR/CD3 Effector reporter cells) (human, UniProt P07766 23-207; P04234 22-171; P09693 23-182); assay: FACS on human PBMC, PE goat anti-human IgG Fc secondary antibody, geometric mean fluorescence
# T1 construct: whole, on cells; The CD3 complex as carried by T cells; also called huPBMC; CD3 receptor
# T1 sequence (P07766 23-207, chain 1 of 3): as the sequence (P07766 23-207, chain 1 of 3) above
# T1 sequence (P04234 22-171, chain 2 of 3): as the sequence (P04234 22-171, chain 2 of 3, further chain) above
# T1 sequence (P09693 23-182, chain 3 of 3): as the sequence (P09693 23-182, chain 3 of 3, further chain) above
# Procedure: FACS was used to evaluate the binding activity of 153A6B1, 155A9B1, and 192A7B9 chimeric mAbs on human or cynomolgus PBMC. SP34 (Biointron, B6762) and OKT3 (Biointron, B6928) served as the benchmark controls.
# Briefly, cynoPBMCs were first incubated with 3-fold serially diluted 153A6B1, 155A9B1, and 192A7B9 chimeric mAbs starting at 10 nM at 4° C. for 30 mins. While huPBMCs were incubated with 4-fold serially diluted 153A6B1, 155A9B1, and 192A7B9 chimeric mAbs starting at 10 nM at 4° C. for 30 mins. After washing by PBS, PE Goat anti-Human IgG Fc Secondary Antibody (eBioscience™, Invitrogen) was added to each well and incubated at 4° C. for 30 mins. Samples were washed twice with FACS buffer. The mean florescence intensity (MFI) of PE was evaluated by MACSQuant Analyzer 16.
Binder,% of SP34 [1] [%],EC50 (read off the curve) [2] [pM]
B1,14.2,
B2,18.4,
B3,,~300
